Assay results as given in patent publication US20170226167A1.
Where no end group is shown, it is not given here. [ ]: non-standard residue; d: D form. Met(O) = CS(=O)CC[C@H](N)C(=O)O; pS = N[C@@H](COP(=O)(O)O)C(=O)O

How the values were obtained:
[1] = target: Recombinant bovine HSC70 (Stressgen) (bovine) (UniProt P19120); assay: SPR (BIAcore 3000), bovine HSC70 immobilized, peptide at 3.12 µM, 1:1 Langmuir fit
[2] = target: Recombinant bovine HSC70 (Stressgen) (bovine) (UniProt P19120); assay: SPR (BIAcore 3000), bovine HSC70 immobilized, peptide at 25 µM, 1:1 Langmuir fit
[3] = target: Recombinant bovine HSC70 (Stressgen) (bovine) (UniProt P19120); assay: SPR (BIAcore 3000), bovine HSC70 immobilized, peptide as analyte, 1:1 Langmuir fit, 25 C
[4] = target: Recombinant bovine HSC70 (Stressgen) (bovine) (UniProt P19120); assay: SPR (BIAcore 3000), bovine HSC70 immobilized, peptide at 1.56 µM, 1:1 Langmuir fit
[5] = target: Recombinant bovine HSC70 (Stressgen) (bovine) (UniProt P19120); assay: SPR (BIAcore 3000), bovine HSC70 immobilized, peptide at 6.25 µM, 1:1 Langmuir fit
[6] = target: Recombinant bovine HSC70 (Stressgen) (bovine) (UniProt P19120); assay: SPR (BIAcore 3000), bovine HSC70 immobilized, peptide at 12.5 µM, 1:1 Langmuir fit

Chain of Recombinant bovine HSC70 (Stressgen) (bovine) (P19120 whole entry): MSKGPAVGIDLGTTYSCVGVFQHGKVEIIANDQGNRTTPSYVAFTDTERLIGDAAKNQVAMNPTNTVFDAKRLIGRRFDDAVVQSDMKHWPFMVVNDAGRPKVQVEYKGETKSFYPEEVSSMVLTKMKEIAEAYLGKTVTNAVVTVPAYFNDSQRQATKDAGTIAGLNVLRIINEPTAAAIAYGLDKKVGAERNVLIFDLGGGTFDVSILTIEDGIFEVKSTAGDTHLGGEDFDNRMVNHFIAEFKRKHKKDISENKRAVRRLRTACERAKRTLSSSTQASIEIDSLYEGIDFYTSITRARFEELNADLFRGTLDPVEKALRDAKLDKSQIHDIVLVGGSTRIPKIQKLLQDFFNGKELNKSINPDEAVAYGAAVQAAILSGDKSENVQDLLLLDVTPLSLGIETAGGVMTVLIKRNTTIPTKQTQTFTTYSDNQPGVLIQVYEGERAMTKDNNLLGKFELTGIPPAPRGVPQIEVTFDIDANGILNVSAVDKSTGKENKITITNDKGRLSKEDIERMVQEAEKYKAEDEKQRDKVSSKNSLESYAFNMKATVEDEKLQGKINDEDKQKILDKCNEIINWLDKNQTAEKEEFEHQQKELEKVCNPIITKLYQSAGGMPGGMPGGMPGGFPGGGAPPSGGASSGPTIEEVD

| Ka [1] | Kd [1] | Req (RU) [1] | kobs [1] | koff [1] | Ka [2] | Kd [2] | Req (RU) [2] | kobs [2] | koff [2] | kon [3] | Ka [4] | Kd [4] | Req (RU) [4] | kobs [4] | koff [4] | Ka [5] | Kd [5] | Req (RU) [5] | kobs [5] | Binder | other results |
| --- | --- | --- | --- | --- | --- | --- | --- | --- | --- | --- | --- | --- | --- | --- | --- | --- | --- | --- | --- | --- | --- |
| 524000 M⁻¹ | 1.91 µM | 24.2 RU | 0.0058 s⁻¹ | 0.0022 s⁻¹ | 524000 M⁻¹ | 1.91 µM | 36.3 RU | 0.031 s⁻¹ | 0.0022 s⁻¹ | 1150 M⁻¹ s⁻¹ | 524000 M⁻¹ | 1.91 µM | 17.6 RU | 0.004 s⁻¹ | 0.0022 s⁻¹ | 524000 M⁻¹ | 1.91 µM | 29.9 RU | 0.0094 s⁻¹ | RIH[Met(O)]VYSKR[pS]GKPRGYAFIEY | koff [5]: 0.0022 s⁻¹; Ka [6]: 524000 M⁻¹; Kd [6]: 1.91 µM; Req (RU) [6]: 33.9 RU; kobs [6]: 0.0166 s⁻¹; koff [6]: 0.0022 s⁻¹ |
| 144000 M⁻¹ | 6.94 µM | 25.8 RU | 0.00452 s⁻¹ | 0.00312 s⁻¹ | 144000 M⁻¹ | 6.94 µM | 65.2 RU | 0.0144 s⁻¹ | 0.00312 s⁻¹ | 450 M⁻¹ s⁻¹ | 144000 M⁻¹ | 6.94 µM | 15.3 RU | 0.00382 s⁻¹ | 0.00312 s⁻¹ | 144000 M⁻¹ | 6.94 µM | 39.5 RU | 0.00593 s⁻¹ | RIHMVYSKR[pS]GKPRGYAFIEY [P140 peptide (peptide consisting of SEQ ID NO: 1, in which serine at position 10 is phosphorylated)] | koff [5]: 0.00312 s⁻¹; Ka [6]: 144000 M⁻¹; Kd [6]: 6.94 µM; Req (RU) [6]: 53.6 RU; kobs [6]: 0.00874 s⁻¹; koff [6]: 0.00312 s⁻¹ |
